In patent publication US9371393B2, “Class I anti-CEA antibodies and uses thereof” (Immunomedics, Inc., priority 2009, dated 2016):

How the values were obtained:
[1] = test system: RII and RI isoforms of PKA; conditions: Gold 2006; Stokka et al. 2006; cited from earlier work
[2] = test system: SUM1315 breast cancer model; assay: hMN-15 pretreatment and CPT-11 in SUM1315 breast cancer model; type: in vivo; conditions: single agent; dosages as in Example 5
Experimental: The effects of pre-treatment with naked hMN-15 CEA Mab given 3 days prior to CPT-11 treatment is examined in a SUM1315 breast cancer model (Kuperwasser et al., Cancer Res. 2005, 65:6130-38). CPT-11 alone, hMN-15 alone, and combination therapy of hMN-15+CPT-11 where the hMN-15 is administered 3 days prior to the CPT-11 are compared. Dosages are as indicated in Example 5. hMN-15 alone increases median survival time by 21% under these conditions. CPT 11 alone increases survival by 76%. By contrast, the combination therapy where hMN-15 is administered 3 days prior to CPT-11 produces a median survival time increase of an additional 58% above CPT-11 alone. […] The synergistic effect of hMN-15 antibody with CPT-11 therapy is surprising.

[3] = target: T1, CEA (Homo sapiens, UniProt P06731); assay: Competitive CEA binding against HRP-labeled murine MN-15; conditions: competition with HRP-labeled murine MN-15
T1 sequence (P06731 35-676): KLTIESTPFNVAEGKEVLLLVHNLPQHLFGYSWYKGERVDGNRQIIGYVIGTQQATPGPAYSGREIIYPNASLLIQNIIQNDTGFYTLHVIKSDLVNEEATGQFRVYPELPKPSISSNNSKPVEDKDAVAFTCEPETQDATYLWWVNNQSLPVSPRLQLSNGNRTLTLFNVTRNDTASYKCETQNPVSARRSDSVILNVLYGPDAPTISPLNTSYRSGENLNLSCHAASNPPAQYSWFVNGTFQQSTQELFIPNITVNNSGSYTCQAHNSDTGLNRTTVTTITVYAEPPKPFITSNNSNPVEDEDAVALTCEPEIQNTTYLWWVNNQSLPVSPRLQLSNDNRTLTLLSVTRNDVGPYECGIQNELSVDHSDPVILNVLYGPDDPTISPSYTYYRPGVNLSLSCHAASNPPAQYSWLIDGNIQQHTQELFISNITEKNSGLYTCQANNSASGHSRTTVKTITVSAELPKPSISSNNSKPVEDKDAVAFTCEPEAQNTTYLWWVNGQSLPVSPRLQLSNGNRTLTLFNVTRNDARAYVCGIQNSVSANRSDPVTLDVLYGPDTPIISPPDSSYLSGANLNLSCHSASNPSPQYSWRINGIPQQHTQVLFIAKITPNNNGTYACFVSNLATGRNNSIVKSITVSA
Excerpt: To make a chimeric MN-15 antibody, the murine MN-15 variable region sequences were attached to human IgG1 constant region sequences, as described in Leung et al., Hybridoma 13:469 (1994). The sequences of the murine MN-15 VK (SEQ ID NO:9) and MN-15 VH (SEQ ID NO:10) used to construct the chimeric MN-15 (cMN-15) are shown in FIG. 2 and FIG. 3.

[4] = test system: TT human medullary thyroid cell line tumors; assay: hMN-15 and DTIC in TT medullary thyroid cancer xenografts; type: in vivo, nu/nu mice; conditions: at 7 weeks, DTIC 75 μg/dose, hMN-15 100 μg/dose
Experimental: Tumors are propagated in female nu/nu mice (Taconic Farms, Germantown, N.Y.) at 6-8 weeks of age by s.c. injection of 2×10^8 washed TT cells, which is propagated in tissue culture. Antibodies are injected i.v., via the lateral tail vein, into the tumor-bearing animals. Tumor size is monitored by weekly measurements of the length, width, and depth of the tumor using a caliper. Tumor volume is calculated as the product of the three measurements.
To study whether naked hMN-15 can add to the efficacy of DTIC, TT bearing nude mice are given DTIC (75 μg/dose) in combination with a course of treatment of the unlabeled MAb. DTIC is administered for 3 consecutive days at 75 μg/dose as one course, beginning 2 days after s.c. injection of TT cells. hMN-15 MAb treatment is initiated 3 days prior to the first dose of DTIC, at 100 μg/dose/day for 5 days in the first two weeks, then twice weekly.

[5] = test system: liver metastases of sigmoid colon cancer; assay: Sigmoid colon cancer therapy with hMN-15 and GM-CSF, patient two; type: in vivo, human; parameters: blood CEA titer / CEA titer: unit not given here
Experimental: patient two is a person who is refractive to chemotherapy with 5-fluorouracil and leucovorin to reduce their metastases to the liver found at the time of removal of their sigmoid colon cancer. […] Other radiological studies appear to be normal. Immunotherapy with humanized anti-CEA IgG (hMN-15) monoclonal antibody is begun on a weekly basis for 4 weeks, at an intravenous dose of 300 mg/m^2 infused over 2 hours. One week prior to hMN-15 therapy, the patient receives 2 subcutaneous injections of 200 μg/m^2 GM-CSF, 3 days apart, and continued twice weekly during the 4 weeks of hMN-15 therapy. After these four weeks, both hMN-15 and GM-CSF are given at the same doses every other week for an additional 3 months, but the dose of GM-CSF is increased to 250 μg/m^2. Prior to each administration of the humanized anti-CEA antibody, the patient is given diphenhydramine (50 mg orally), and acetaminophen (500 mg orally).

[6] = test system: liver and lung metastases of colon cancer; assay: Combined immunotherapy and chemotherapy of metastatic colon cancer, patient one; type: in vivo, human; parameters: blood CEA titer: unit not given here
Experimental: patient one is a person presenting with liver and lung metastases of colon cancer following resection of the primary tumor. They are placed on a combined chemotherapy and immunotherapy protocol based on the Gramont schedule (de Gramont et al., J Clin Oncol. 2000, 18:2938-47), but with the addition of humanized anti-CEA monoclonal antibody IgG1 (hMN-15). Prior to infusions of the antibody, they receive 50 mg orally of diphenhydramine and 500 mg orally of acetaminophen. They receive a 2-hr infusion of leucovorin (200 mg/m^2/day) followed by a bolus of 5-fluorouracil (400 mg/m^2/day) and 22-hour continuous infusion of 5-fluorouracil (600 mg/m^2/day) for 2 consecutive days every 2 weeks, together with oxaliplatin at 85 mg/m^2 as a 2-hr infusion in 250 mol of dextrose 5%, concurrent with leukovorin on day 1 (FOLFOX4 schedule). The patient also receives anti-emetic prophylaxis with a 5-hydroxyltryptamine-3-receptor antagonist. One week prior to this 2-week chemotherapy cycle, hMN-15 monoclonal anti-CEA antibody is infused over 2 hrs at a dose of 200 mg/m^2, and repeated each week of the 2-week chemotherapy cycle, and every week thereafter for the next month with another chemotherapy cycle. Also, a subcutaneous dose of 5 μg/kg/day of G-CSF is administered once weekly beginning with the second chemotherapy cycle, and continued at this dose for the duration of immunotherapy with hMN-15 antibody, over the next 3 months.
A total of 5 cycles of chemotherapy is performed with continued administration of hMN-15 antibody and filgrastim. Thereafter, hMN-15 and filgrastim therapy is given, at the same doses, every other week for the next 3 months, without chemotherapy. The patient is staged 2 months later, and their liver and lung metastases show shrinkage by computed tomography measurements of >80 percent of disease measured in the liver and lungs, as compared to the measurements made prior to therapy. […] They are followed over the next 6 months, and their disease appears to be stable, with no new lesions found and no increase in the disease remaining in the liver and lungs. […] The patient also experiences diarrhea, mucositis, nausea and vomiting during the chemotherapy cycles, but these are not excessive.

[7] = hMN-15 with GM-CSF, restaging after another 2 months

## QIEYVAKQIVDYAIHQA [SuperAKAP-IS]
[1]
  selectivity / affinity for RII versus RI isoform of PKA: five order of magnitude higher selectivity for the RII isoform of PKA compared with the RI isoform

## CCc1c2c(nc3ccc(OC(=O)N4CCC(N5CCCCC5)CC4)cc13)-c1cc3c(c(=O)n1C2)COC(=O)[C@]3(O)CC [CPT-11, irinotecan, reference compound]
[2]
  increase of median survival time: 76%

## FEELAWKIAKMIWSDVFQQC [PV-38]
[1]
  selectivity / affinity for RII versus RI isoform of PKA: higher affinity for RI

## LEQYANQLADQIIKEATE [RIAD]
[1]
  selectivity / affinity for RII versus RI isoform of PKA: higher affinity for RI

## DLIEEAASRIVDAVIEQVKAAGAY [Ht-31]
[1]
  selectivity / affinity for RII versus RI isoform of PKA: greater affinity for the RII isoform of PKA

B1: cMN-15: murine MN-15 variable regions (SEQ ID NO:9, SEQ ID NO:10) attached to human IgG1 constant regions (antibody, listed as Mus sp., V domains shown)
VL: DIQLTQSPAIMSASPGEKVTMTCSASSRVSYIHWYQQKSGTSPKRWIYGTSTLASGVPARFSGSGSGTSYSLTISSMEAEDAATYYCQQWSYNPPTFGAGTKLELKR
VH: EVRLVESGGGLVQGPGSLRLSCAASGFALTDYYMSWVRQSPGKTLEWLGFIANKANGHTTDYSPSVKGRFTISRDNSQTILYLQMNTLRTEDSATYYCARDMGIRWNFDVWGQGTTVTVSS
modifications: human IgG1 constant regions
[3]
  affinity for CEA compared with parent murine MN-15: virtually identical
  dissociation constant: nanomolar range

B2: hMN-15: humanized MN-15, VK SEQ ID NO:7 and VH SEQ ID NO:8, REI/KOL frameworks, human IgG1 (antibody, V domains shown)
VH: QVQLVESGGGVVQPGRSLRLSCSSSGFALTDYYMSWVRQAPGKGLEWLGFIANKANGHTTDYSPSVKGRFTISRDNSKNTLFLQMDSLRPEDTGVYFCARDMGIRWNFDVWGQGTPVTVSS
VL: DIQLTQSPSSLSASVGDRVTMTCSASSRVSYIHWYQQKPGKAPKRWIYGTSTLASGVPARFSGSGSGTDFTFTISSLQPEDIATYYCQQWSYNPPTFGQGTKVEIKR
modifications: human IgG1 constant regions
[3]
  affinity for CEA compared with parent murine MN-15: virtually identical
  dissociation constant: nanomolar range
[4]; untreated 0/10
  mice with no palpable tumor: 0/10
[4]; untreated 1.578+0.959
  mean tumor volume: 0.899+0.545 cm^3
[2]
  increase of median survival time: 21%
[5]; hMN-15 300 mg/m^2 with GM-CSF, first restaging
  decrease of sum of the diameters of the measurable tumors in the liver: 40%
[5]; hMN-15 with GM-CSF
  adverse reactions: no adverse reactions to the therapy
[5]; hMN-15 with GM-CSF, first restaging, at presentation 34 ng/mol
  blood CEA titer: 18
[5]; [7]
  CEA titer: 10
  tumor decrease over the pre-therapy baseline: > 65%
[6]; hMN-15 200 mg/m^2 with FOLFOX4 schedule and G-CSF (filgrastim)
  shrinkage of liver and lung metastases by computed tomography: > 80%
[6]; hMN-15 and filgrastim without chemotherapy
  adverse events when only immunotherapy is administered: does not experience any adverse events
[6]; hMN-15 with FOLFOX4 and filgrastim, during chemotherapy cycles
  predominant toxicity: peripheral sensory neuropathy
[6]; hMN-15 with FOLFOX4 and filgrastim, pre-therapy level 63 ng/mol
  blood CEA titer: 9
